Test results taken from IntAct's records for PubMed 10629049.

Experiments:
creb3_human CREB3 = creb3_human CREB3 (UniProt O43889)
po2f1_human POU2F1 = po2f1_human POU2F1 (UniProt P14859)
UniProt P14859, sequence (P14859 whole entry): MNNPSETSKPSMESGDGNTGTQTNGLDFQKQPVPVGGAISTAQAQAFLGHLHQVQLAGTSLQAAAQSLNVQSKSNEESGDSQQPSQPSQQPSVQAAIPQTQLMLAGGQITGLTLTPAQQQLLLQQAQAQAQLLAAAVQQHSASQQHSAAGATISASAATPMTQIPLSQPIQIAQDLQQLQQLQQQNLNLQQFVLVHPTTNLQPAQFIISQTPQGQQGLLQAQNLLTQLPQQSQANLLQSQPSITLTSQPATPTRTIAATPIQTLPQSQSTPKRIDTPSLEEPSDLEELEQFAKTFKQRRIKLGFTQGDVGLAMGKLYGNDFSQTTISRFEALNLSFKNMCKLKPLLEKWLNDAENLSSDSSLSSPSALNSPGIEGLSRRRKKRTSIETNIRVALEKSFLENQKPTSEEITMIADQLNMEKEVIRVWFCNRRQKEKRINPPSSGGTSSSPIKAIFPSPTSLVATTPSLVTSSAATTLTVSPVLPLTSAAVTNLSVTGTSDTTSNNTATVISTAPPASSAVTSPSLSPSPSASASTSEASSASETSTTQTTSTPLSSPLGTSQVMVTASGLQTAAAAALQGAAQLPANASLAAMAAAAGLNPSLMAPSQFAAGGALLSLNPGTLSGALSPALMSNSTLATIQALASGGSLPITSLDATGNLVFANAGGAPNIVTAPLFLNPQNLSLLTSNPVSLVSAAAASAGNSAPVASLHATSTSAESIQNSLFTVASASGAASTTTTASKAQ

UniProt O43889, sequence (O43889 whole entry): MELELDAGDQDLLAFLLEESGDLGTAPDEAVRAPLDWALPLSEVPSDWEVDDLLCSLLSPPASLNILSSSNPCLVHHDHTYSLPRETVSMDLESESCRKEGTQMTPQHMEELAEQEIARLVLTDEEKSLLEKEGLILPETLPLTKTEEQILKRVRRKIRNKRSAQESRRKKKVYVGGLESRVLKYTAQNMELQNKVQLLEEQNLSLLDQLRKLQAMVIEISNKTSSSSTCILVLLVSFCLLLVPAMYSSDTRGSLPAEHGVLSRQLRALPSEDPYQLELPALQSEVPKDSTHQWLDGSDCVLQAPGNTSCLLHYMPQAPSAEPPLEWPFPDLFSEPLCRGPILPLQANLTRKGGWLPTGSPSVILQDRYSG

Substance	effect of a mutation on the interaction (creb3_human CREB3)	effect of a mutation on the interaction (po2f1_human POU2F1)
Host cell factor 1 (Homo sapiens), P51610 C82D	decreasing interaction	
Host cell factor 1 (Homo sapiens), P51610 E289A;W290A;K291A	decreasing interaction	decreasing interaction
Host cell factor 1 (Homo sapiens), P51610 P30S	decreasing interaction	
Host cell factor 1 (Homo sapiens), P51610 P79S	decreasing interaction	
Host cell factor 1 (Homo sapiens), P51610 P134S	decreasing interaction	decreasing interaction
Host cell factor 1 (Homo sapiens), P51610 P197S	decreasing interaction	
Host cell factor 1 (Homo sapiens), P51610 P319S	decreasing interaction	
Host cell factor 1 (Homo sapiens), P51610 R228D	decreasing interaction	
Host cell factor 1 (Homo sapiens), P51610 R344A;K345A		decreasing interaction
Host cell factor 1 (Homo sapiens), P51610 S338A	decreasing interaction	
